Measurements as given in the supplement of paper PMC9170038.

Test system: K4 kissing-loop RNA reporter
Test: apparent KD of K4 kissing-loop reporter; higher = weaker reporter binding
Details: Eterna round: R107
Procedure: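 RNA-MaP round R107: designed RNA switches with theophylline, tryptophan, arginine or FMN aptamers are transcribed on-chip within common flanks. They are titrated with a labelled K4 kissing-loop RNA reporter in RNA-MaP buffer (100 mM Tris pH 7.5, 80 mM KCl, 4 mM MgCl2), without ligand or with the indicated ligand. Median apparent KD per design.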

[1] = input ligand: theophylline 20 uM
[2] = input ligand: tryptophan 2.4 mM
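Further: bound reporter read as fluorescence of individual clusters on recovered sequencing chips by microscopy, with normalized cluster intensities fitted with a binding model.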

Sequence	apparent KD of K4 kissing-loop reporter (input ligand: FMN 200 uM) [nM]	apparent KD of K4 kissing-loop reporter (input ligand: arginine 13.2 mM) [nM]	apparent KD of K4 kissing-loop reporter (input ligand: none) [nM]	apparent KD of K4 kissing-loop reporter [1] [nM]	apparent KD of K4 kissing-loop reporter [2] [nM]
AAGGGCGGGACUUCCUCGCCGGAUAGAGAUACCAGCCCUGCAAAGGGCCCUUGGCAGCUCACUGACCUCAGUGAUGUUGAGGUUC [Maanveri]	252	210	234	209	223
AAGGUCACCACUACAGUGAUGUUGUGGGAGCAGGAUAUGCAGAAAUGCAGAAGGGCUCGCUCCCGGUGACCGAAUGAAACAUUCA [Omei KL FMN A SS A v5]	1380	636	981	765	846
AAGGUCACUACUACAGUGAUGUUGUAGGAGCAGGAUAUGCAGAAAUGCAGAAGGGCUCGCUCCAAGUGACCGAAUGAAACAUUCA [Omei KL FMN A SS A v2]	368	430	607	611	482
AAGGUUCGUGGAAGGAGCGCCCGUGCGACUCGUUCACUAAGUGAAGUCCGAGUGAUGUUCGGGCAGGUAGGUCGCCACGGGCAAA [Atonenge]	164	133	152	153	153
AAGUACACGAUAGUGUACACCUAGUGAUGUUAGGAUAUGCAGAUAUGCAGAAGGAGCAAGUCAUCUGACAAUAGUCGGAUGACAA [FmnAX 7 #OpenEnded #K4Early]	315	63.2	89.4	107	80.2
AAGUGUGUGGCGGCCGCCACUAGAAUCCAGUGAUGUUGGAGAUAUCACGUAAGUGAUAUCCACCAUAGGACCGGGCCAUAUAGAA [Same State - Tryptophan B (Freestyle 13)]	1300	758	559	428	483
AAGUGUGUGGCGGCCGCCACUAGAAUCCAGUGAUGUUGGAGUUAUCAUAUAAUUGAUAAUCAACAUAGGACCGGGCCAUAUAGAA [Same State - Tryptophan B (Freestyle 6)]	602	441	540	511	416
AAGUGUGUGGCGGCCGCCACUAGAAUCCAGUGAUGUUGGAGUUAUCAUGUAAAUGAUAAUCAACAUAGGACCGGGCCAUAUAGAA [Same State - Tryptophan B (Freestyle 8)]	630	377	701	441	349
AAGUGUUCUAGUGAUACCAGACAUUUCAAUUACAUUAAUAUAGCUAAGUGAUGUUUAGCAGUCCCUUGGCAGCACUAUUUCACUA [JR_SSTheophyB_Sub016]	130	144	135	149	131
AAUAAAAUCACGGCCGCCACUGAUUACCAUAUUAGGAGUGAUGUUCCUAUGACUAUAUAAUUUAACAGGACCGGGUGAAUAUUUA [JR_ExcTryptoB_Sub011]	105	103	107	106	94.3
AAUAACUAGUAUAUUUUUAAUAAUACAGAUACCAGUGAUAAUAGACACCCUUGGCAGCUGAUCGAGUGAUGUUCGUUUAUUUUAA [#11 K4 Theophylline A Same State]	80.2	86.9	85	129	64.7
AAUAAGCAUGGAAGGAGCGUAGUCCAGUGAUGUUGGAGUUAAAUACCAGUGAUGUUGGUUAUACAGGUAGGUCGCCAUAAAGCUU [Exclusion Arginine B Gf 6]	92.4	64.8	89.3	83.2	75.4
AAUAAGGUCGCCGAUACCAGCGCAGGCAGAGCAAAGCUCUGCCUGGUAGUGAUGUUACCGCGCCCUUGGCAGCGGUGGCACGACC [Omei KL Theo B SS C v5]	64.8	27.1	71.3	71.7	85.9
AAUAAGUGUCAGCGAGUGAUGUUCGACGAUACCAGACUCGAUAGAGUCCCUUGGCAGCGUAACGCAUGCCAAACUGGCACAAUAA [#SwitchBubble 8 #K4Early]	444	444	611	507	450
AAUACGAAGCAGUGAUGUUGCUUAUGAGAAGGAGCGCACGAAAGUGCAGGUAGGUCGCUCAGCCAAGUGGACGAAAACGUCCACA [whbob_SS_Arginine_A_sa108]	96.4	116	98.4	127	90.6
AAUAUAGUGAUGUUAUAUAAGAAGGAGUUACGAGGACCGGUACGGCCGCCACUCGAAACGAGUGAGGGCCCGGGAGAUUGGGCCC [SSTryptA.G]	339	275	320	436	262
ACACAGAGUUGCCGAGUGAUGUUCGGCUUACGAGGACCGGUACGGCCGCCACUCGUUACUCUGUGUUUUGGACACCAAGGCGUAG [Edvemaquan]	565	492	675	497	169
ACCAUCAAAGAUGGCCAGGACACCGCUGAUACCAGAGUGAAAACACUCCCUUGGCAGCAGGUGAGUGAUGUUCACAGUCCAUGGA [Omel KL Theo A SS B v2]	566	422	588	901	361
ACCUACGAUCACAAUAGUGAUUGUAGGAACUAGGAUAUGCUGAAAAGCAGAAGGAGUGAUGUUCCGUCAUGAAUAACAUGACAAA [FmnAX 5 #OpenEnded #K4Late #CoaxialStacking]	251	525	495	594	336
ACGAUCAUGGCAGGAUAUACGAAUGCAUUAGGGCUGCCAGUGAUGUUGGUGGACCGAGGACGUAGAGUAGAAGGGCCGACUUAAA [Leonmain]	138	169	139	86.4	157
ACGCGCGCGAGUGAUGUUCGGAGCGGCUGGCAGGAUAUGUAGCAAUGCAGAAGGGUCGUGGCGCGUCCAGGGUAACCUGGACGCG [#2 Exclusion - FMN A Attempt #26 (HarryS)]	280	229	1040	455	719

Sequence	apparent KD of K4 kissing-loop reporter (input ligand: FMN 200 uM) [nM]	apparent KD of K4 kissing-loop reporter (input ligand: arginine 13.2 mM) [nM]	apparent KD of K4 kissing-loop reporter (input ligand: none) [nM]	apparent KD of K4 kissing-loop reporter [1] [nM]	apparent KD of K4 kissing-loop reporter [2] [nM]
ACGCUAGCUACCGAAAGGUAGCUAGCGAGUGAGGAUAUGUGGAAACACAGAAGGCACAGCGCAGUGAUGUUGUGCGGCGGAAGCG [whbob_SS_FMNA__2th168]	604	221	631	664	473
ACGCUGGAUGAAUAACAUCUAGCGAAAAUUCGAGGACCGGUACGGCCGCCACUCGAGCUAACUGCGAGUGAUGUUCGAUAAUAAA [Mat - Mod of OpenEnded 3 - D6]	196	374	309	497	72.1
ACGUAGUUCUAGGAUACCAGCCAAGGAGCGCAGGACAAAAGUCCUGCCGCCAGUGAUGUUGGCCCUUGGCAGCCUAGAACUACGA [Omei KL Theo B Exc B v1]	193	162	145	165	160
ACGUAGUUCUAGGAUACCAGCCAAGGUCGCCAGGACAAAAGUCCUGGCGCCAGUGAUGUUGGCCCUUGGCAGCCUAGAACUACGA [Omei KL Theo B Exc B v6]	195	176	176	174	203
ACGUAUAUCAGAGGAUAUCGUAUUAAUAUUUUAUCUAUAUAUAUAUGCAGUGAUGUUGCUAUAAUUCGAGAAGGCUGAUUUACGA [JR_ExcFMNB_Sub011]	109	109	84	120	81.4
ACGUCAUAUGUAAUGGUGGUUUCGAUCGAUACCAGUAGCGAGAGUUACCCUUGGCAGCGACAUGAGUGAUGUUCAUGUAUGAAGA [KL-XTheo-A2 #analogue]	116	109	107	120	105
ACUAUCAUUACGCAUGGAGUGAUGUUUCAGCGAGGACCGGUACGGCCGCCACUCGUUACGUGGUUAGAGCCAAUGUUCGAGAAGC [theeternabot_exclusion_KL_Trp_A_39]	1170	832	927	1270	520
ACUAUGGAGUGAUGUUCCCGCGUCAUUGAUACCAGAAUGUAUACCUUCCCUUGGCAGCAAUUCAUCGCACGUAUACUUAUACAAG [theeternabot_sameState_KL_Theo_A_31]	585	541	665	841	541
AGAAGAGUGAUGUUCUUCUAUAUCUCAGAAGGAGCGACAUUAAUGUCAGGUAGGUCGCUGAGAUGAAAUCUCACACAGAUCUUGG [Arg A SS t8a]	145	154	149	178	125
AGAAUAAUAAAUUUGGAGUGAUGUUCCGGACGAGGACCGGUACGGCCGCCACUCGAAAGCAGUCUGCGAAAGCAGACUGCAAGGA [Tesla SS Tryp A 1]	817	449	580	349	645
AGACCACAAAGUGGUCAGUGUUCGCUGCGGCGAGGACCGGUACGGCCGCCACUCGCGAGUGAUGUUCGCGAGCGCAGCGAACACA [Omei KL Tryp A Exc A v3]	89.4	88.8	92.7	65	88.5
AGACCCUGGUAGGAUACCAGCGGCAUGCAGUGCGAGAGAGCGUAGUGAUGUUACGAGACCCGCCCUUGGCAGCCUGGGAAUGUGU [theeternabot_exclusion_KL_Theo_B_50]	90.1	67.8	79.8	75.5	72.6
AGACUACCACACUGUCAAUAGACAGUGAACUCGGAUAUGCUGAUAAGCAGAAGGAGUGAUGUUCCGAGGUAGUCAAUAAAAUAAU [FmnAX 13 C32+G66]	263	316	568	448	521
AGACUACCACACUGUCAAUAGACAGUGAACUCGGAUAUGCUGAUAAGCAGAAGGAGUGAUGUUCCUAGGUAGUCAAUAAAAUAAU [FmnAX 13 C32]	160	242	376	370	359
AGACUACCUACACUGUCAAUAGACAGUGACUAGGAUAUGCUGAUAAGCAGAAGGAGUGAUGUUCCUAAUAAAAGGUGGUAGUCAU [FmnAX 19 #SwitchBubble #StaticStem #K4Early]	309	258	230	284	173
AGACUACUGACAGGAUAUAACAUAUUAGCUCGUAUACCAAAGGUAUACGAGCACCUUCUAGUGAUGUUAGAAGGGUCGGUAGUCA [Omei KL FMN B Exc B v1]	297	99.8	106	96.2	118
AGAGAGGUGUUUUUUUGAUGUGAGUAAUGGCGAGGACCGGUACGGCCGCCACUCGGGUGAUGUUAGUGAUGUUGAUGUAGUGAUG [p'pmullin]	79.4	66.6	71.1	131	77
AGAGUCAGACAAAAGUCUGGCUCAGCCGAAGGAGCGUCCGUAAGGACAGGUAGGUCGCGGCUAUUUGAGUGAUGUUUGGGUUCCU [KL-SSArg-A20]	281	144	231	233	212
AGAGUUAAUUAGUCAUUUUUCACAUUAAGUCAGGAUAUCGUAUUUUCGAGAAGGGACACAUGCUAGUGAUGUUAGCUAUUUCUCA [JR_Nu_ExcFMNA_Sub021]	63.6	93.9	68.3	105	56.9
AGAGUUAUGAGAGGAUAUGCGGCUAGUACUCAAAGAGUACUAGCAGCGGAGUGAUGUUCUGUGAAAGCAGAAGGUUCAUAACUCA [#07 K4 FMN B Same State]	159	1350	1100	907	1350
AGAUCUGUAACAGAUACCAGAGGACGAUGAUCGGACAGUGAUGUUAUCUGUCAGUCGUCGCUCCCUUGGCAGCUGUUACAGAUCA [Omei KL Theo B SS B v3]	78.1	43.1	73.7	94.9	65.2
